Test results: publication doi:10.1101/2024.03.04.583391 (bioRxiv, 2024)

Target: T1, DIP-β-G, recombinant protein for SPR (Drosophila melanogaster)
T1 chain: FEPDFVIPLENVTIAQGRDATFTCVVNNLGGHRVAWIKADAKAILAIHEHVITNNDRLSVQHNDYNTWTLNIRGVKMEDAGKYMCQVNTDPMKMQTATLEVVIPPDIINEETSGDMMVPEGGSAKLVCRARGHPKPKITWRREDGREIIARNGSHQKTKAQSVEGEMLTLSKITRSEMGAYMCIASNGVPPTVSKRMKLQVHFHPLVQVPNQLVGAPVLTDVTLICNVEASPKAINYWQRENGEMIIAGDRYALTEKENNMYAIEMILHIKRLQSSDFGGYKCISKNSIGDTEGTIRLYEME
Test: SPR

B1: Dpr10-A, recombinant protein for SPR (domain or fragment, Drosophila melanogaster)
chain: WNEPYFDLTMPRNITSLVGKSAYLGCRVKHLGNKTVAWIRHRDLHILTVGTYTYTTDQRFQTSYHRDIDEWTLQIKWAQQRDAGVYECQISTQPVRSYSVNLNIVDLIDAETSDIMQQYYNDDAFYIAENRVYQSSNDEFAGMFGPIQTVAVPTATILGGPDLYVDKGSTINLTCIIKFSPEPPTHIFWYHQDKVLSEETSGGRLKFKTIKSEETKSILLIYDADLLHSGKYSCYPSNTEIASIRVHVLQGE
- Kd: 5.76 µM
